To fix the notation:
B1: SNT-1 PTB domain (amino acid residues 11-140 of SEQ ID NO:1) (other)
chain: DTVPDNHRNKFKVINVDDDGNELGSGIMELTDTELILYTRKRDSVKWHYLCLRRYGYDSNLFSFESGRRCQTGQGIFAFKCARAEELFNMLQEIMQNNSINVVEEPVVERNNHQTELEVPRTPRTPTTPGLVPR

Experiment [1] addresses T1, hFGFR1 peptide, 22-residue peptide derived from the juxtamembrane region of hFGFR1 (residues 409-430 of SEQ … (named hFGFR1 (human); SEQ ID NO:2 is …).
T1 peptide: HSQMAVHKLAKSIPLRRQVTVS
Nature of the experiment: isothermal titration calorimetry (ITC).

Experiment [2] concerns the target B1. Description: method not stated.

Results on two molecules are retold here after patent US20060019296A1, “Methods of indentifying modulators of the FGF receptor” (Mount Sinai School of Medicine, published 2006).

A word on the Kd: it is the equilibrium constant for the complex coming apart.

Square brackets hold non-standard residues; d marks the D form. Ends that are not written are not given here. pY = N[C@@H](Cc1ccc(OP(=O)(O)O)cc1)C(=O)O

In turn, B1 returned a Kd in experiment [1] of roughly 10 µM.
Regarding LVIAGNPA[pY]RS [tyrosine-phosphorylated peptide LVIAGNPApYRS (SEQ ID NO:4)], in experiment [2], the dissociation constant (Kd) was roughly 1 µM and the “fold higher affinity than for the FGFR derived peptide of SEQ ID NO:3” value is roughly 10 fold.
